According to patent publication US20180355338A1:

Columns and labels:
[1] = target: TY-145 protease variant K146T, S173P, S175P, F180Y (Bacillus sp. TY-145); experiment: Ki fitted from Suc-AAPF-pNA activity; Model B detergent; ratio against m3 (without K146T)
[2] = target: TY-145 protease variant S27K, S171N, S173P, G174R, S175P, F180Y, L184F, Q198E, T297P (Bacillus sp. TY-145); experiment: Ki fitted from Suc-AAPF-pNA activity; Model B detergent; ratio against m4 (without L184F)
[3] = target: TY-145 protease variant K146W, S173P, S175P, F180Y (Bacillus sp. TY-145); experiment: Ki fitted from Suc-AAPF-pNA activity; Tris buffer pH 8; ratio against m3 (without K146W)
[4] = target: TY-145 protease variant S27K, S173P, G174K, S175P, F180Y, L184Y, Q197K, Q198E, T297P (Bacillus sp. TY-145); experiment: Ki fitted from Suc-AAPF-pNA activity; Model B detergent; ratio against m10 (without L184Y)
[5] = target: TY-145 protease variant S114Q, S173P, S175P, F180Y (Bacillus sp. TY-145); experiment: Ki fitted from Suc-AAPF-pNA activity at 8 inhibitor concentrations; Model B detergent; ratio against m3 (without S114Q)
[6] = target: TY-145 protease variant S173P, S175P, F180Y, L184W (Bacillus sp. TY-145); experiment: Ki fitted from Suc-AAPF-pNA activity; Model B detergent; ratio against m3 (without L184W)
[7] = target: TY-145 protease variant S173P, S175P, I178Y, F180Y (Bacillus sp. TY-145); experiment: Ki fitted from Suc-AAPF-pNA activity; Model B detergent; ratio against m3 (without I178Y)
[8] = target: TY-145 protease variant K146A, S173P, S175P, F180Y (Bacillus sp. TY-145); experiment: Ki fitted from Suc-AAPF-pNA activity; Tris buffer pH 8; ratio against m3 (without K146A)

In the case of “Z-Gly-Ala-NHCH(CH2C6H4pOH)C(OH)(SO3Na)-H, wherein Z is benzyloxycarbonyl (peptide)”, the relative Ki mutation [1] is reported as 0.08, the relative Ki mutation [2] is reported as 0.18 and the relative Ki mutation [3] is reported as 0.16. It also gave a relative Ki mutation [4] of 0.32, a relative Ki mutation [5] of 0.63 and a relative Ki mutation [6] of 0.5. The relative Ki mutation [7] was 0.53 and the relative Ki mutation [8] was 0.29.
